Measurements: US20160376353A1 (DECIMMUNE THERAPEUTICS, published 2016)
Ends that are not written are not given here.

T1: Biotin-labeled N2 peptide (also: biotin label, position not given here)
T1 construct: also called immobilized N2
T1 peptide: LMKNMDPLNDNV

T2: N2 peptide (non-muscle myosin neo-epitope N2 12mer sequence)
T2 construct: also called N2 12-mer peptide
T2 peptide: LMKNMDPLNDNV


Legend:
[1] = molecular target: T1, Biotin-labeled N2 peptide; test: SPR (BIACORE X100), biotin-N2 peptide on NeutrAvidin chip, antibody in solution; kd/ka (monovalent)
Description: (§1) The remaining sequences represent the germline sequences with the highest homology that encode productive antibody. All of the humanized sequences maintain the murine 21G6 CDR regions which are shown inside the boxes in FIG. 1. The humanized variable regions were cloned into a vector containing wild type human IgG1, human IgG1 containing a mutation at amino acid 297 (Asn 297 to Q297), human IgG4 containing a mutation at amino acid 228 (serine to proline) and human kappa light chain. Each antibody (heavy and light) combination was expressed by transient co-transfection in 293A cells (in the presence of low Ig serum). The antibody containing supernatants were collected and analyzed for binding to the N2 peptide by ELISA and BIACORE™ X100 system. All experiments were performed using a BIACORE™ X100 system. For antibody capture experiments, a CM5 chip was prepared by 10 ul/minute injection of EDC/NHS (N-ethyl-N′-(3-dimethylaminopropyl) carbodiimide (EDC), N-hydroxysuccinimide (NHS) for 7 minutes, followed by a 10 ul/minute injection of anti-human Fc (GE Lifesciences) at a concentration of 25 ug/ml in sodium acetate at pH 5 for 3 minutes. Ethanolamine-HCl was injected for 7 minutes at 10 ul/minute. The chimeric or humanized antibodies were captured onto flow cell 2 and N2 peptide at varying concentrations was flowed over flow cells 1 and 2 at a rate of 30 ul/minute with a contact time of 120 seconds and a dissociation period of 120 seconds. Complete removal of captured antibody was accomplished by regeneration with 3M MgCl2 for 30 seconds at a flow rate of 10 ul/minute. For peptide immobilized experiments, a CM5 chip was prepared by 10 ul/minute injection of EDC/NHS (N-ethyl-N′-(3-dimethylaminopropyl) carbodiimide (EDC), N-hydroxysuccinimide (NHS) for 7 minutes, followed by a 10 ul/minute injection of NEUTRAVIDIN® protein (ThermoFisher Pierce) at a concentration of 5 ug/ml in sodium acetate, pH 5 to an immobilization response of 100-200RU. Ethanolamine-HCl was injected for 7 minutes at 10 ul/minute. Biotin-labeled N2 peptide was captured on flow channel 2 with the goal of an experimental Rmax of about 50-100RU. Purified chimeric or humanized antibodies were flowed over both flow channels at a rate of 30 ul/min for a contact time of 120 seconds and allowed to dissociate for 600 seconds.

[2] = molecular target: T1, Biotin-labeled N2 peptide; test: SPR (BIACORE X100), biotin-N2 peptide on NeutrAvidin chip, antibody in solution; upper end of the printed range 2.0-5.2
Description: (§2) The remaining sequences represent the germline sequences with the highest homology that encode productive antibody. All of the humanized sequences maintain the murine 21G6 CDR regions which are shown inside the boxes in FIG. 1. The humanized variable regions were cloned into a vector containing wild type human IgG1, human IgG1 containing a mutation at amino acid 297 (Asn 297 to Q297), human IgG4 containing a mutation at amino acid 228 (serine to proline) and human kappa light chain. Each antibody (heavy and light) combination was expressed by transient co-transfection in 293A cells (in the presence of low Ig serum). The antibody containing supernatants were collected and analyzed for binding to the N2 peptide by ELISA and BIACORE™ X100 system. All experiments were performed using a BIACORE™ X100 system. […]

[3] = molecular target: T1, Biotin-labeled N2 peptide; test: SPR (BIACORE X100), biotin-N2 peptide on NeutrAvidin chip, antibody in solution; steady state affinity
Description: as §1, with “The” for “The remaining sequences represent the germline sequences with the highest homology that encode productive antibody. All of the humanized sequences maintain the murine 21G6 CDR regions which are shown inside the boxes in FIG. 1. The”

[4] = molecular target: T1, Biotin-labeled N2 peptide; test: SPR (BIACORE X100), biotin-N2 peptide on NeutrAvidin chip, antibody in solution; upper end of the printed range 3-6.5
Description: as §2

[5] = molecular target: T2, N2 peptide (non-muscle myosin …); test: SPR (BIACORE X100), immobilized antibody, N2 peptide in solution; lower end of the printed range 4-6 uM
Description: as §2

[6] = molecular target: T1, Biotin-labeled N2 peptide; test: SPR (BIACORE X100), biotin-N2 peptide on NeutrAvidin chip, antibody in solution; upper end of the printed range 5-53
Description: as §2

[7] = molecular target: T1, Biotin-labeled N2 peptide; test: SPR (BIACORE X100), biotin-N2 peptide on NeutrAvidin chip, antibody in solution; upper end of the printed range 1-11
Description: as §2

[8] = molecular target: T2, N2 peptide (non-muscle myosin …); test: SPR (BIACORE X100), antibody captured by anti-human Fc, N2 peptide in solution
Description: as §1

[9] = molecular target: T1, Biotin-labeled N2 peptide; test: SPR (BIACORE X100), biotin-N2 peptide on NeutrAvidin chip, antibody in solution; upper end of the printed range 7-19
Description: as §2

[10] = molecular target: T1, Biotin-labeled N2 peptide; test: SPR (BIACORE X100), biotin-N2 peptide on NeutrAvidin chip, antibody in solution; upper end of the printed range 7-10
Description: as §2

| Kd [1] [nM] | kon [2] [M⁻¹ s⁻¹] | Kd [3] [nM] | koff [4] [s⁻¹] | Kd [5] [nM] | koff [6] [s⁻¹] | kon [7] [M⁻¹ s⁻¹] | Kd [8] [nM] | koff [9] [s⁻¹] | kon [10] [M⁻¹ s⁻¹] | Binder |
| --- | --- | --- | --- | --- | --- | --- | --- | --- | --- | --- |
| 300 | 52000 | 280 | 0.0065 |  |  |  |  |  |  | H3-21G6 / L1-21G6 (Table 2, constant region not stated) (antibody, V domains shown, human kappa light chain; also called H3/L1) VH: QVQLVQSGAEVKKPGSSVKVSCKASGYTFTSYYMYWVRQAPGQGLEWIGGINPSNGGTNFNEKFKSKATITVDKSTSTAYMELSSLRSEDTAVYYCTRWGYDREWFAYWGQGTLVTVSS VL: DIVMTQSPATLSVSPGERATISCRSSKSLLHSNGNTYLYWFQQKPGQPPKVLIYRMSNLASGVPARFSGSGSGTDFTLTISSVEPEDFATYYCMQHLEYPFTFGGGTKLEIKR |
| 200 to 400 |  | 313 to 540 |  | 4000 to 6000 | 0.053 | 110000 |  |  |  | Murine 21G6 antibody (antibody, V domains shown, also called m21G6) VH: QVQLQQPGAELVKPGASVKLSCKASGYTFTSYYMYWVKQRPGQGLEWIGGINPSNGGTNFNEKFKSKATLTVDKSSSTAYMQLSSLTSEDSAVYYCTRWGYDREWFAYWGQGTLVTVSA VL: DIVMTQAAPSVPVTPGESVSISCRSSKSLLHSNGNTYLYWFLQRPGQSPQVLIYRMSNLASGVPDRFSGSGSGTAFTLRISRVEAEDVGVYYCMQHLEYPFTFGSGTKLEIKR |
| 100 to 200 |  | 196 to 240 |  |  |  |  | 5600 | 0.019 | 100000 | Chimeric 21G6, human heavy chain constant region IgG1 with Q297 mutation (antibody, V domains shown, Human IgG1 constant region with Asn 297 to Gln; also called ch21G6 N297Q) VH: QVQLQQPGAELVKPGASVKLSCKASGYTFTSYYMYWVKQRPGQGLEWIGGINPSNGGTNFNEKFKSKATLTVDKSSSTAYMQLSSLTSEDSAVYYCTRWGYDREWFAYWGQGTLVTVSA VL: DIVMTQAAPSVPVTPGESVSISCRSSKSLLHSNGNTYLYWFLQRPGQSPQVLIYRMSNLASGVPDRFSGSGSGTAFTLRISRVEAEDVGVYYCMQHLEYPFTFGSGTKLEIKR |
